These results are taken from US8715959B2, “Substitution mutant receptors and their use in a nuclear receptor-based inducible gene expression system” (priority 2001, dated 2014).

This assay deals with CfEcR-DEF. Description: GAL4/mutant CfEcR-DEF + VP16/LmUSP-EF GAL4-driven luciferase reporter transactivation in NIH3T3 cells. It is filed as cell-based, Choristoneura fumiferana. The following applies: NIH3T3 cells, relative to Gal4/wild-type CfEcR-DEF switch activity; for Fold increase over WT, 2.5 μM GS™-E: 2.5 μM GS™-E non-steroidal ligand; for Fold increase over WT, 2.5 μM PonA: 2.5 μM PonA steroidal ligand. As for the experimental part: DNAs corresponding to the various switch constructs outlined in Example 1, specifically switches 1.1-1.13, were transfected into mouse NIH3T3 cells (ATCC) or L57 cells (Dr. Peter Cherbas; Indiana University) as follows. Standard methods for culture and maintenance of the cells were followed. […] Superfect™ (Qiagen Inc.) was used for 3T3 cells and Lipofectamine™ (LifeTechnologies) was used for L57 cells as the transfection reagents. For 12-well plates, 4 μl of Superfect™ or Lipofectamine™ was mixed with 100 μl of growth medium. One μg of reporter construct and 0.25 μg of each receptor construct of the receptor pair to be analyzed were added to the transfection mix. […] The cells were harvested and reporter activity was assayed.
Cells were harvested 40 hours after adding ligands. […] Twenty μl of lysate were assayed.
Briefly, Applicants mutated amino acid residues predicted to be critical for ecdysteroid binding into alanine and created GAL4/mutantCfEcR-DEF cDNA gene expression cassettes as described in Example 1 above using the Quikchange PCR-mediated site-directed mutagenesis kit (Stratagene, La Jolla, Calif.). The mutated and the WT cDNAs were tested in GAL4-driven luciferase reporter assays.
DNAs corresponding to the various switch constructs outlined in Example 1, specifically switches 1.1-1.2, were transfected into mouse NIH3T3 cells (ATCC) as follows. […] Two μl of Superfect™ was mixed with 100 μl of growth medium and 50 ng of either GAL4/wild-type EcR or Gal4/mutant EcR cassette, 50 ng of VP16/LmUSP-EF and 200 ng of pFRLuc were added to the transfection mix. […] The cells were harvested and reporter activity was assayed as described above.

B1: I62A: CfEcR-DEF LBD substitution mutant, Isoleucine (I) to Alanine (A) (protein, listed as Choristoneura fumiferana)
chain: LTANQQFLIARLIWYQDGYEQPSDEDLKRITQTWQQADDENEESDTPFRQITEMTILTVQLAVEFAKGLPGFAKISQPDQITLLKACSSEVMMLRVARRYDAASDSVLFANNQAYTRDNYRKAGMAYVIEDLLHFCRCMYSMALDNIHYALLTAVVIFSDRPGLEQPQLVEEIQRYYLNTLRIYILNQLSGSARSSVIYGKILSILSELRTLGMQNSNMCISLKLKNRKLPPFLEEIWDV
As for B1, the “Fold increase over WT, 2.5 μM GS™-E” value worked out at 0.12 fold and the “Fold increase over WT, 2.5 μM PonA” value turned out to be 0.004 fold.

B2: A123F: CfEcR-DEF LBD substitution mutant, Alanine (A) to Phenylalanine (F) (protein, listed as Choristoneura fumiferana)
chain: LTANQQFLIARLIWYQDGYEQPSDEDLKRITQTWQQADDENEESDTPFRQITEMTILTVQLIVEFAKGLPGFAKISQPDQITLLKACSSEVMMLRVARRYDAASDSVLFANNQAYTRDNYRKFGMAYVIEDLLHFCRCMYSMALDNIHYALLTAVVIFSDRPGLEQPQLVEEIQRYYLNTLRIYILNQLSGSARSSVIYGKILSILSELRTLGMQNSNMCISLKLKNRKLPPFLEEIWDV
On to B2, for which the “Fold increase over WT, 2.5 μM GS™-E” value turned out to be 0.09 fold and the “Fold increase over WT, 2.5 μM PonA” value amounted to 0.005 fold.

B3: R95A: CfEcR-DEF LBD substitution mutant, Arginine (R) to Alanine (A) (protein, listed as Choristoneura fumiferana)
chain: LTANQQFLIARLIWYQDGYEQPSDEDLKRITQTWQQADDENEESDTPFRQITEMTILTVQLIVEFAKGLPGFAKISQPDQITLLKACSSEVMMLAVARRYDAASDSVLFANNQAYTRDNYRKAGMAYVIEDLLHFCRCMYSMALDNIHYALLTAVVIFSDRPGLEQPQLVEEIQRYYLNTLRIYILNQLSGSARSSVIYGKILSILSELRTLGMQNSNMCISLKLKNRKLPPFLEEIWDV
On to B3, for which the “Fold increase over WT, 2.5 μM GS™-E” value came out at 0.4 fold and the “Fold increase over WT, 2.5 μM PonA” value is 0.006 fold.

B4: F109A: CfEcR-DEF LBD substitution mutant, Phenylalanine (F) to Alanine (A) (protein, listed as Choristoneura fumiferana)
chain: LTANQQFLIARLIWYQDGYEQPSDEDLKRITQTWQQADDENEESDTPFRQITEMTILTVQLIVEFAKGLPGFAKISQPDQITLLKACSSEVMMLRVARRYDAASDSVLAANNQAYTRDNYRKAGMAYVIEDLLHFCRCMYSMALDNIHYALLTAVVIFSDRPGLEQPQLVEEIQRYYLNTLRIYILNQLSGSARSSVIYGKILSILSELRTLGMQNSNMCISLKLKNRKLPPFLEEIWDV
As to B4, the “Fold increase over WT, 2.5 μM GS™-E” value was 0.22 fold and the “Fold increase over WT, 2.5 μM PonA” value stood at 0.005 fold.

B5: M93A: CfEcR-DEF LBD substitution mutant, Methionine (M) to Alanine (A) (protein, listed as Choristoneura fumiferana)
chain: LTANQQFLIARLIWYQDGYEQPSDEDLKRITQTWQQADDENEESDTPFRQITEMTILTVQLIVEFAKGLPGFAKISQPDQITLLKACSSEVMALRVARRYDAASDSVLFANNQAYTRDNYRKAGMAYVIEDLLHFCRCMYSMALDNIHYALLTAVVIFSDRPGLEQPQLVEEIQRYYLNTLRIYILNQLSGSARSSVIYGKILSILSELRTLGMQNSNMCISLKLKNRKLPPFLEEIWDV
For B5, the “Fold increase over WT, 2.5 μM GS™-E” value is given as 0.46 fold and the “Fold increase over WT, 2.5 μM PonA” value amounted to 0.07 fold.

B6: Y120A: CfEcR-DEF LBD substitution mutant, Tyrosine (Y) to Alanine (A) (protein, listed as Choristoneura fumiferana)
chain: LTANQQFLIARLIWYQDGYEQPSDEDLKRITQTWQQADDENEESDTPFRQITEMTILTVQLIVEFAKGLPGFAKISQPDQITLLKACSSEVMMLRVARRYDAASDSVLFANNQAYTRDNARKAGMAYVIEDLLHFCRCMYSMALDNIHYALLTAVVIFSDRPGLEQPQLVEEIQRYYLNTLRIYILNQLSGSARSSVIYGKILSILSELRTLGMQNSNMCISLKLKNRKLPPFLEEIWDV
As to B6, the “Fold increase over WT, 2.5 μM GS™-E” value was 0.001 fold and the “Fold increase over WT, 2.5 μM PonA” value is listed as 0.006 fold.
